Reference: paper PMC10987829 (iScience, 2024)

What was measured:
[1] = target: Npm2 A2mockglu4 peptide (…), 'pseudo-glutamylated' (Xenopus laevis); assay: other fluorescence titration
[2] = test system: H3/H4; conditions: cited from earlier work
[3] = target: H2A/H2B dimers (Xenopus laevis, UniProt P02281+P06897); assay: Protein thermal shift; assay type: binding; conditions: H2A/H2B 0.5 mg/mL, ligand 1.2:1 molar ratio, 50 mM Bis-Tris propane pH 7.4, 150 mM NaCl, 10X SYPRO Orange; apo H2A/H2B Tm 46.1 ± 0.2°C; three replicates
[4] = test system: mononucleosomes; assay: Disassembly of premade mononucleosomes; assay type: biochemical; conditions: salt-dialysis mononucleosomes, increasing chaperone

Xenopus laevis H2A/H2B heterodimer (from UniProt P06897;P02281) (complex)
Kd [1]: 300 nM

Npm2 Tail (119–146): Npm2 C-terminal Tail domain peptide, residues 119–146, purified as previously described (AMEEDYSWAEEEDEGEEEEEEEEDPESP)
fold lower affinity for H3/H4 than for H2A/H2B [2]: 5 fold

DYDEEGEEADDEEGEEEADEDHDPDFDPK [Nap1 A3 (350–382)]
change of H2A/H2B melting temperature (Tm) [3]: 6.7 °C

B1: Nap1glu: TTLL4-treated (glutamylated) full-length Nap1 (protein)
chain: MANIDNKGQTELDQQDMEDVEDVEEEETGEDANSKARQLTAQMMQNPQVLAALQERLDDLVGTPTGYIESLPKVVKRRVNALKNLQVKCAQIEAKFYEEVHELERKYAALYQPLFDKRSDIINATYEPTEEECEWKVEEEDISGDLKEKAKLEEEKKDEEKEDPKGIPEFWLTVFKNVDLLSDMLQEHDEPILKHLKDIKVKFSDAGQPMSFTLEFYFEPNEFFTNEVLTKTYKMRSEPDESDPFSFDGPEIMGCTGCLIDWKKGKNVTLKTIKKKQKHKGRGTVRTVTKTVPNDSFFNFFTPPEVPENGELDDDAEAILTADFEIGHFLRERIIPRSVLYFTGEAIEDDDDDYDEEGEEADDEEGEEEADEDNDPDYEPKV
disassembly of premade mononucleosomes [4]: neither Nap1 nor Nap1glu were able to disassemble premade mononucleosomes
